Experimental findings from article PMC2819048 are described below.

Test in all cases: SPR
In general terms: SPR reads the build-up and loss of mass on a sensor chip optically.

One data set deals with T1, DnaC R216A (Escherichia coli, UniProt P0AEF0 1-245, R216A).
T1 sequence: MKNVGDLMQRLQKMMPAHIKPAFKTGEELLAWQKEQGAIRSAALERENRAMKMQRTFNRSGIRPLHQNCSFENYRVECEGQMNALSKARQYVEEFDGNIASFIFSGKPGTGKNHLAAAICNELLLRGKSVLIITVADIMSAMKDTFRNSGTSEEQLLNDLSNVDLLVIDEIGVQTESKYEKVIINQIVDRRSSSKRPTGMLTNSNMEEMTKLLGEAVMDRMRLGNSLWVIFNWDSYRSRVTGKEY

For the next data set, the target named is T2, DnaC (Escherichia coli, UniProt P0AEF0 1-245).
T2 sequence: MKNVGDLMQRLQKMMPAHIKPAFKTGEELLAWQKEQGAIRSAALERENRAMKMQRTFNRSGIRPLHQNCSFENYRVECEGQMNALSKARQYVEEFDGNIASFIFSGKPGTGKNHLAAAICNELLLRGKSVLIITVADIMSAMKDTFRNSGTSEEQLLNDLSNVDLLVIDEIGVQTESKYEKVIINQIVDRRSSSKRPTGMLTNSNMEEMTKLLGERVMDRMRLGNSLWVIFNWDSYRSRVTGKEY

For the next data set, the target named is T3, DnaC R220A (Escherichia coli, UniProt P0AEF0 1-245, R220A).
T3 sequence: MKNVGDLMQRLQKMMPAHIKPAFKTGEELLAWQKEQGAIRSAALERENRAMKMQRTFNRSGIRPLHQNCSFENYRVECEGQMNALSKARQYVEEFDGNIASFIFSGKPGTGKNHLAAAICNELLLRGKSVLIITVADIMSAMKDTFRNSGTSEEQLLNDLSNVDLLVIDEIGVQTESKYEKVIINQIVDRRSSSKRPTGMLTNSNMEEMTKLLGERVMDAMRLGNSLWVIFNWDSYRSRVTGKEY

On to CATCCAATAAATCATACACAAGGC (ssDNA) [5'-biotinylated oligonucleotide], for which, in the data set with DnaC R216A, the binding result is given as “binds”. The binding signal with DnaC is ~2.4 fold stronger than without ATP; with DnaC R220A it was 1.7 fold stronger than without ATP.
